Source: publication PMC7094590

Target: wild-type HCoV-229E Nsp9 (non-structural protein 9 of human coronavirus 229E) (human coronavirus 229E)
Experiment: crystal structure

“wild-type HCoV-229E Nsp9 (non-structural protein 9 of human coronavirus 229E) (natural protein)” showed a stoichiometry N of 2.
